Assay results from patent publication US20180086841A1 (Merck Sharp & Dohme, published 2018).

T1: His9G-tagged cynomolgus CD27 recombinant protein (cynomolgus, limits assumed)
T1 construct: In-house, transient transfection of HEK293 cells; also called Cyno CD27/His
T1 chain: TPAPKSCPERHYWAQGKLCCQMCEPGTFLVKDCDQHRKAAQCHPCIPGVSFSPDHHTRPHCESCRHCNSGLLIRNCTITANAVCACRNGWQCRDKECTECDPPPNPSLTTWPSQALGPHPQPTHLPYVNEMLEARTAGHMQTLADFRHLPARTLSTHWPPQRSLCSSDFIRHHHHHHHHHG


Key:
human CD27 [1] = target: T2, human CD27 (human, UniProt P26842 21-260); test: cell ELISA on human CD27 CHOK1 cells, hIgG4
T2 construct: also called hCD27; HsCD27
Description: (§1) Purified antibodies were assayed for binding to human CD27 expressing CHOK1 cells using a cell-based ELISA format. Human CD27 expressing CHOK1 cells were plated in 96-well tissue-culture plates in 50 μl of DMEM/F12, 10% BCS (bovine calf serum) (CHO-K1 media). Cells were plated at either 2×10⁴ cells/well two days prior to the assay or 4×10⁴ cells/well one day prior to the assay. Media was removed from the wells prior to the assay followed by incubation of mAb in 100 μL fresh culture medium at a starting concentration of 10 μg/mL and 8 step 1:5 serial dilutions (hIgG4 antibodies) or starting concentration of 50 μg/mL and 8 step 1:5 serial dilutions (hIgG1 antibodies). The antibodies were incubated for 30-60 minutes at room temperature and washed 3 times with PBS/0.05% Tween 20 using a cell ELISA washing protocol on the Biotek EL405x Select CW plate washer.

[2] = target: T3, His9G-tagged human CD27 recombinant protein (human, UniProt P26842 21-191); test: SPR Biacore 4000, antibody captured on anti-human Fc, His9G-tagged CD27 injected, 1:1 fit;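 further: Double-referenced SPR (blank anti-Fc surface and buffer injection subtracted), KD derived from association and dissociation rate constants, with human and cynomolgus CD27 as analytes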
T3 construct: In-house, transient transfection of HEK293 cells; also called Human CD27/His
Excerpt: (§2) Flow cell spots modified with anti-human Fc antibody but lacking CD27 antibodies were used as reference. […] The chip surface was regenerated with a 30 second injection of 3M MgCl₂ after each injection cycle.
(§3) Data were double referenced by subtracting the response from a blank surface and that from a buffer injection and used for analyzing the rate constant of association (kₐ) and dissociation (kd), and the equilibrium dissociation constant KD. The resulting data sets were fitted with a Langmuir 1:1 binding model using the Biacore 4000 BIAevaluation software, version 1.0 (GE/Biacore).

[3] = target: T1, His9G-tagged cynomolgus CD27 …; test: as above
Excerpt: as §2, §3

human CD27 [4] = target: T2, human CD27; test: cell ELISA on transfected CHO cells
Description: as §1

human CD27 [5] = target: T2, human CD27; test: flow cytometry MFI, CD4+ T cells of human PBMC, N=2 donors
human CD27 [6] = target: T2, human CD27; test: flow cytometry MFI, CD8+ T cells of human PBMC, N=2 donors

Row | Binder | EC50 (human CD27 [1]) [nM] | Kd [2] [nM] | Kd [3] [nM] | fold EC50 against 131AVH6VL6-hIgG1 (human CD27 [4]) [fold] | EC50 (human CD27 [5]) [nM] | EC50 (human CD27 [6]) [nM]
1 | hCD27.131A VH6VL6 huIgG4 (antibody, V domains shown) VH: EIQLVQSGAEVKKPGASVKVSCKASGYTFTNYGMNWVKQAPGQGLKWMGWINTNTGEPTYAEEFKGRFTFTLDTSISTAYMELSSLRSEDTAVYYCAREGDAMDYWGQGTTVTVSS VL: EIVLTQSPATLSLSPGERATLSCSASSSVSYMHWYQQKPGQAPKRWIYDTSKLASGVPARFSGSGSGTDYSLTISSLEPEDFAVYYCQQWNSYPFTFGQGTKLEIK | 0.101 | 168 | 73 |  |  | 
2 | 131A chimera huIgG4 (antibody, V domains shown, also called chimeric mouse-human hCD27.131A huIgG4) VH: QIQLVQSGPELKKPGETVKISCKASGYTFTNYGMNWVKQAPGKGLKWMGWINTNTGEPTYAEEFKGRFAFSLETSATTAYLQINNLKNEDTATYFCAREGDAMDYWGQGTSVTVSS VL: QIVLTQSPAIMSASPGEKVTMTCSASSSVSYMHWYQQKSGTSPKRWIYDTSKLASGVPARFSGSGSGTSYSLTISSMEAEDAATYYCQQWNSYPFTFGSGTKLEIK |  | 43.4 | 31.2 |  |  | 
3 | Mouse Human Chimera CD27 131A-hIgG1 (antibody, V domains shown, also called chimeric mouse-human hCD27.131A huIgG1) VH: QIQLVQSGPELKKPGETVKISCKASGYTFTNYGMNWVKQAPGKGLKWMGWINTNTGEPTYAEEFKGRFAFSLETSATTAYLQINNLKNEDTATYFCAREGDAMDYWGQGTSVTVSS VL: QIVLTQSPAIMSASPGEKVTMTCSASSSVSYMHWYQQKSGTSPKRWIYDTSKLASGVPARFSGSGSGTSYSLTISSMEAEDAATYYCQQWNSYPFTFGSGTKLEIK |  | 29.2 | 40.4 |  | 0.0664 | 0.0649

Next, values leading:

Row | EC50 (human CD27 [1]) [nM] | Kd [2] [nM] | Kd [3] [nM] | fold EC50 against 131AVH6VL6-hIgG1 (human CD27 [4]) [fold] | EC50 (human CD27 [5]) [nM] | EC50 (human CD27 [6]) [nM] | Binder
4 | 0.103 | 99.1 | 55.2 | ≤ 2 |  |  | hCD27.131A VH6VL8 huIgG4 (antibody, V domains shown) VH: EIQLVQSGAEVKKPGASVKVSCKASGYTFTNYGMNWVKQAPGQGLKWMGWINTNTGEPTYAEEFKGRFTFTLDTSISTAYMELSSLRSEDTAVYYCAREGDAMDYWGQGTTVTVSS VL: EIVLTQSPATLSASPGERVTLSCSASSSVSYMHWYQQKPGQAPKRWIYDTSKLASGVPARFSGSGSGTDYSLTISSMEPEDFAVYYCQQWNSYPFTFGQGTKLEIK
5 | 0.132 | 108 | 82 | ≤ 2 |  |  | hCD27.131A VH6VL7 huIgG4 (antibody, V domains shown) VH: EIQLVQSGAEVKKPGASVKVSCKASGYTFTNYGMNWVKQAPGQGLKWMGWINTNTGEPTYAEEFKGRFTFTLDTSISTAYMELSSLRSEDTAVYYCAREGDAMDYWGQGTTVTVSS VL: EIVLTQSPATLSLSPGERATLSCSASSSVSYMHWYQQKPGQAPKRWIYDTSKLASGVPARFSGSGSGTSYSLTISSLEPEDFATYYCQQWNSYPFTFGQGTKLEIK
6 | 0.042 | 65.7 | 58.2 | ≤ 2 |  |  | hCD27.131A VH7VL6 huIgG4 (antibody, V domains shown) VH: EIQLVQSGAEVKKPGASVKISCKASGYTFTNYGMNWVKQAPGQGLKWMGWINTNTGEPTYAEEFKGRFTFTLDTSATTAYLEISSLRSEDTAVYYCAREGDAMDYWGQGTTVTVSS VL: EIVLTQSPATLSLSPGERATLSCSASSSVSYMHWYQQKPGQAPKRWIYDTSKLASGVPARFSGSGSGTDYSLTISSLEPEDFAVYYCQQWNSYPFTFGQGTKLEIK
7 | 0.084 | 82.4 | 36.7 | ≤ 2 |  |  | hCD27.131A VH7VL7 huIgG4 (antibody, V domains shown) VH: EIQLVQSGAEVKKPGASVKISCKASGYTFTNYGMNWVKQAPGQGLKWMGWINTNTGEPTYAEEFKGRFTFTLDTSATTAYLEISSLRSEDTAVYYCAREGDAMDYWGQGTTVTVSS VL: EIVLTQSPATLSLSPGERATLSCSASSSVSYMHWYQQKPGQAPKRWIYDTSKLASGVPARFSGSGSGTSYSLTISSLEPEDFATYYCQQWNSYPFTFGQGTKLEIK
